B1: Pdr6/Kap122 (S. cerevisiae), full length, tag removed (natural protein)
chain: MSSIHEVVALIEELYSPHPKHDVNQIQQSLQSIQKSEQGFHLANELLSDDKYSANVKYFGALTLTVQLNTRGENDYETLWNVFRSNLLYLTKFSTLYVSNPNMYGQSLIIIKKLMSNLSLIFTKINDPQLNNAGNENMIKQWNNPINTFIQLMSVQNQNINADQLLLDSINCSLTYEQLSQFVSLSQKHNELALTFTEVIVEDLTKFQTKRHSMSQIHEVVHEHLYISTMALINLNLTAQAVFNPTVFDCITAWINYISLTRSVSSSGRMDLSEIFQNLIDLMYQSTEGSDGYENAEKILTIFGNVFANDPLLMSYDLRQQIECIFLGVVRPDSGITDISNKNSWMLQYMNYLVTNDFFSELKELAICIVDFLQINTLSVCNKLFTNIQAADNGQVQDEYIQEYIKVLLQMTNFPLTPVLQEFFSVRMVDFWLDLSDAYTNLASETLRPNSIELSTQIFQQLINIYLPKISLSVKQRIIEEEGESTSVNEFEDFRNAVSDLAQSLWSILGNDNLTNVLIDGMGQMPAASDETLIIKDTDVLFRIETMCFVLNTILVDMTLSESPWIKNIVDANKFFNQNVISVFQTGFQTSASTKVSQILKLDFVRTSTTLIGTLAGYFKQEPFQLNPYVEALFQGLHTCTNFTSKNEQEKISNDKLEVMVIKTVSTLCETCREELTPYLMHFISFLNTVIMPDSNVSHFTRTKLVRSIGYVVQCQVSNGPEEQAKYILQLTNLLSGSIEHCLASSVQLQEQQDYINCLLYCISELATSLIQPTEIIENDALLQRLSEFQSFWSSDPLQIRSKIMCTIDKVLDNSIYCKNSAFVEIGCLIVGKGLNLPDGEPYFLKYNMSEVMNFVLRHVPNCELATCLPYFVYLLEKLISEFRKELTPQEFDFMFEKILLVYYDAYIINDPDLLQMTIGFVNNVLDVKPGLAIGSKHWTSFILPQFLKLIPSREKFTIVAVAKFWTKLINNKKYNQEELTTVRQQVSSIGGDLVYQIMYGLFHTQRSDLNSYTDLLRALVAKFPIEAREWLVAVLPQICNNPAGHEKFINKLLITRGSRAAGNVILQWWLDCTTLPNYQG

Holding throughout (settings): both partners purified
Assay [1] concerns the target human RanQ69L (residues 5-180), GTP-bound (human, UniProt P62826 5-180, Q69L). As to the kind of experiment: crystal structure; Pdr6•RanGTP, hexagonal crystals, 18°C, 50 mM sodium acetate pH 5.5, 220 mM MgCl2, 19% pentaerythritol propoxylate, 10% 2-Methyl-2,4-pentanediol.
The target in assay [2] is B1. The assay can be described thus: crystal structure; Pdr6•Ubc9, 18°C, 50 mM sodium cacodylate pH 5.7, 20 mM MgCl2, 3-5% ethanol.
Assay [3] concerns the target T1, H14-ZZ-bdSUMO-tagged Pdr6 (S. cerevisiae, UniProt P32767 2-1081).
T1 construct: Pdr6/Kap122, S. cerevisiae; also called tagged NTR; source: E. coli Top10 F', purified (Ni(II) chelate, imidazole elution); not shown: His14, N-terminal, kept; ZZ, N-terminal, kept; bdSUMO, N-terminal, kept
T1 sequence: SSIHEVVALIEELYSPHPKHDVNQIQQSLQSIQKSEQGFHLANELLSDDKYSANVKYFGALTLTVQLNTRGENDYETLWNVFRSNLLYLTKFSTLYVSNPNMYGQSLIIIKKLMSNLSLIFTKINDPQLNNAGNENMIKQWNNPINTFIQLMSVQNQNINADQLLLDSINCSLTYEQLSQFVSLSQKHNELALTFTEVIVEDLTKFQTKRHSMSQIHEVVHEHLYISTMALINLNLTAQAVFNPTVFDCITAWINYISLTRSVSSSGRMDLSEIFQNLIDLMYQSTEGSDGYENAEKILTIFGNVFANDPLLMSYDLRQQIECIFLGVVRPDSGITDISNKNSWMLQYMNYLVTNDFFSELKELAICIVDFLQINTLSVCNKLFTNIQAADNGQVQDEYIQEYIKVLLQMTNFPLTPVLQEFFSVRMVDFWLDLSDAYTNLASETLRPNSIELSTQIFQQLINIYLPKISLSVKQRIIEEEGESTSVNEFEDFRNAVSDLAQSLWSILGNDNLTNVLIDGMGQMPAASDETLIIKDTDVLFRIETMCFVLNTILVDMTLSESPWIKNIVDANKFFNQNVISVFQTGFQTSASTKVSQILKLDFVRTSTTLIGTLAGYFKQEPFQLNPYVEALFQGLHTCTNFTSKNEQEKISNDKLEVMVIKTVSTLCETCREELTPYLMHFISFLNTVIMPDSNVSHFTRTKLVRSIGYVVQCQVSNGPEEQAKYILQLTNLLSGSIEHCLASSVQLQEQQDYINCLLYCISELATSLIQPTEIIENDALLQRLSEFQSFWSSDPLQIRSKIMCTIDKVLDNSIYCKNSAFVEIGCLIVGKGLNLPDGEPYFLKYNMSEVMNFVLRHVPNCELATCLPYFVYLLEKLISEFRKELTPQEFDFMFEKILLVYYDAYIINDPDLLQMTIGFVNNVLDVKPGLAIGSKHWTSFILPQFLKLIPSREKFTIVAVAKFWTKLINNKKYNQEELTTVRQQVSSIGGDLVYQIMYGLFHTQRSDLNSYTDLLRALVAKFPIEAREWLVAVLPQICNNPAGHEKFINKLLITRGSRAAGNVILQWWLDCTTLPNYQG
The assay can be described thus: pull-down; 1 µM H14-ZZ-bdSUMO-tagged NTR with 2 µM human or yeast Ubc9; retrieved via the tagged NTR by anti-Protein A beads, eluted by bdSENP1 protease, SDS-PAGE and Coomassie.

On to B1, for which the binding result in assay [1] is recorded as “binds”.

B2: S. cerevisiae Ubc9, full length (enzyme, UniProt P50623 1-157, looked up)
chain: MSSLCLQRLQEERKKWRKDHPFGFYAKPVKKADGSMDLQKWEAGIPGKEGTNWAGGVYPITVEYPNEYPSKPPKVKFPAGFYHPNVYPSGTICLSILNEDQDWRPAITLKQIVLGVQDLLDSPNPNSPAQEPAWRSFSRNKAEYDKKVLLQAKQYSK
notes: Ubc9, SUMO-conjugating E2 enzyme, S. cerevisiae, full length; residues 2-157 are in the model; Full length is said for the crystallised protein; also called yeast Ubc9; source: NEB Express cells, purified (Ni(II) chelate)
In the case of B2, the binding result in assay [2] and in assay [3] was “binds” throughout.

For the origin of these results see publication PMC6548137, “Structural basis for the nuclear import and export functions of the biportin Pdr6/Kap122” (The Journal of Cell Biology, 2019).
